Measured values published in the RNAGym collection of RNA variant scans (doi:10.1021/acssynbio.7b00057).

B1: Pistol ribozyme (parent)
chain: GGGUCGUUGUUCCAUAAUCGCGUGGAUAUGGCACGCAAGUUUCUACCGGGCACCGUAAAUGUCCGACUGGAGCCGUUCGGGCGGCUAUAAACAGACCUCAGGCCCGAAGCGUGGCGGCACCUGCCGCCGGUGGUAAAAAAGAUCGGAAGAGCACACGUCU

Variants of: B1
Assay: aptazyme ON/OFF ratio, guanine; higher = stronger switching; co-transcriptional cleavage with and without guanine

In order of falling “aptazyme ON/OFF ratio” value:
1. U8C G9C U10C  1.97
2. U8C G9C U10G  1.43
3. U8C G9C U10C U11G C13G  1.31
4. U8C G9C U10G C12U C13U  1.28
5. U8C G9C U11C C12G  1.26
6. U8C G9C U10C U11G C12A C13A  1.2
7. U8C G9C U10G U11C C12U C13U  1.19
8. U8C G9C U10G C13G  1.19
9. U8C G9C U10G U11C C12G C13G  1.18
10. U8C G9C U11A C12G C13A  1.17
11. U8C G9C U10G U11C C12U C13A  1.17
12. U8C G9C U10G U11C C12G C13U  1.17
13. U8C G9C U10C U11G C13U  1.17
14. U8C G9C U10C U11G C12A C13G  1.16
15. U8C G9C U11A C12G C13G  1.15
16. U8C G9C U10C U11G C12A C13U  1.15
17. U8C G9C U10G U11C C12G C13A  1.14
18. U8C G9C U10C U11G C13A  1.14
19. U8C G9C U10G U11G C12U C13G  1.13
20. U8C G9C U10G U11A C12G C13G  1.13
21. U8C G9C U11A C13G  1.12
22. U8C G9C U10G C12U C13A  1.12
23. U8C G9C U10C C13U  1.12
24. U8C G9C U11A C12A C13G  1.12
25. U8C G9C U11A C12U C13A  1.12
26. U8C G9C U11A C12U C13G  1.12
27. U8C G9C U10C U11G C12G  1.11
28. U8C G9C U10G U11G C12A C13G  1.11
29. U8C G9C U10G C13U  1.11
30. U8C G9C U10G U11A C12G C13U  1.11
31. U8C G9C U10C U11G C12A  1.1
32. U8C G9C U10C U11G C12U C13G  1.1
33. U8C G9C U10G C13A  1.1
34. U8C G9C U10C U11A C12G C13U  1.1
35. U8C G9C U10G U11C C12U C13G  1.09
36. U8C G9C U10G U11G C12U C13U  1.09
37. U8C G9C U11A C12A C13A  1.09
38. U8C G9C U10G U11G C12A C13A  1.08
39. U8C G9C U10G U11G C12A C13U  1.08
40. U8C G9C U10C U11A C13G  1.08
41. U8C G9C U11C C12A  1.08
42. U8C G9C U11C C12U  1.08
43. U8C G9C U10G U11A C12G C13A  1.08
44. U8C G9C U10C U11A C12G C13G  1.08
45. U8C G9C U10G U11A C12U C13G  1.08
46. U8C G9C U11A C13U  1.07
47. U8C G9C U11A C12G C13U  1.07
48. U8C G9C U10C C12U  1.07
49. U8C G9C U10C U11G C12U  1.07
50. U8C G9C U10G U11G C12U C13A  1.07
51. U8C G9C U11A C12U C13U  1.07
52. U8C G9C U10C C12G  1.06
53. U8C G9C U10C C12A  1.06
54. U8C G9C U10G C12U C13G  1.06
55. U8C G9C U10C U11G C12U C13U  1.06
56. U8C G9C U10C U11A C12G C13A  1.06
57. U8C G9C U10G U11A C12U C13A  1.06
58. U8C G9C U10C U11G C12U C13A  1.05
59. U8C G9C U10C C13G  1.05
60. U8C G9C U11A C12A C13U  1.05
61. U8C G9C U10C U11C C12U C13A  1.05
62. U8C G9C U11A C13A  1.04
63. U8C G9C U10C U11C C13G  1.04
64. U8C G9C U10C U11C C12A C13G  1.04
65. U8C G9C U10C U11A C13U  1.04
66. U8C G9C U10C U11A C12A  1.04
67. U8C G9C U10G U11A C12U C13U  1.04
68. U8C G9C U10C U11C C12A C13A  1.02
69. U8C G9C U10C U11C C12A C13U  1.02
70. U8C G9C U10C U11A C12U  1.02
71. U8C G9C U10C U11A  1.02
72. U8C G9C U10C U11A C12U C13G  1.02
73. U8C G9C U10C U11A C12U C13A  1.02
74. U8C G9C U10C U11C C13A  1.01
75. U8C G9C U10C U11A C13A  1.01
76. U8C G9C U10C C13A  1.01
77. U8C G9C U10C U11A C12G  1.01
78. U8C G9C U10C U11A C12U C13U  1.01
79. U8C G9C U10C U11C C12U C13U  1.01
80. U8C G9C U10C U11C C12U C13G  1
81. U8C G9C U10C U11C  0.964
82. U8C G9C U10C U11C C13U  0.96
83. U8C G9C U10C U11G  0.956
